Results on 1 molecule are retold here after patent US20120204275A1 (NEOTOPE BIOSCIENCES, published 2012).

For this assay, the target named is T1, full-length ApoE4 (human, UniProt P02649 19-317).
T1 construct: In cell lysate; P02649 is printed for the E3 allele (residues 19-317); also called ApoE4(1-299)
T1 chain: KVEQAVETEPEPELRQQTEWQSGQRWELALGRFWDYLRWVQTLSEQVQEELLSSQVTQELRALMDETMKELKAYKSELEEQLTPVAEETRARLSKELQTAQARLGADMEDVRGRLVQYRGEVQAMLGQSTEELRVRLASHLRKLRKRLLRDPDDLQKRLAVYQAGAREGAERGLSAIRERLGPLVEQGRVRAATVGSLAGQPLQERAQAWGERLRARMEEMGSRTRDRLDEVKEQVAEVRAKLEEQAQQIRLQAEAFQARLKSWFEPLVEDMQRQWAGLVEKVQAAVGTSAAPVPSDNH
The experiment in a line: immunoprecipitation from cell lysate, western blot with 1F9. The method, then:
Cell Lysates preparation: Media was aspirated. Cells were treated for desired time by adding fresh media containing regulator. Media was then removed and cells rinsed with ice-cold PBS to harvest cells under nondenaturing conditions. PBS was removed, and 0.5 ml ice-cold 1× cell lysis buffer was added to each plate (10 cm). The plates were incubated on ice for 5 minutes. Cells were scraped off the plates and transferred to microcentrifuge tubes. The cells were kept on ice, and sonicated on ice three times for 5 seconds each. The samples were then microcentrifuged for 10 minutes at 14,000×g, 4° C., and the supernatant was transferred to a new tube. When necessary, lysate was stored at −80° C.
The membrane was then incubated with primary antibody anti-ApoE4 antibody 1F9 (MBL International Corp., Cat# M067-3) in 10 ml primary antibody dilution buffer with gentle agitation overnight at 4° C. […]
Lysates of full-length ApoE3, full-length ApoE4, ApoE3(1-272), and ApoE4(1-272) lysates were detected using Western blot with 1 μg/ml 1F9 (Medical and Biological Laboratories) (Lanes 1-4; FIG. 3). […] The m15G8 immunoprecipitation were then detected using Western blot with 1 μg/ml 1F9 (Lanes 5-8; FIG. 3). […]

B1: mouse monoclonal antibody 15G8 (antibody, V domains shown)
VH: EVKLVESGGGLVKPGGSLKLSCAASGFTFSFYAMSWVRQTPEKRLEWVASLSRGGSTYYPDSVKGRFTISRDNARNTLYLQMSSLRSEDTAMFYCAREGATALYAMDYWGQGTSVTVSS
VL: DVLMTQTPLSLPVSLGDQASISCRSSQSIVHSNGNTYLQWYLQKPGQSPKLLIYKVSNRFSGVPDRFSGSGSGTDFTLKISRVEAEDLGIYYCFQGSHVPWTFGGGTKLEIK
notes: Same variable regions as 12C12 and 15E10; also called m15G8; mouse 15G8
As to B1, the binding result was “no binding”.
